# B1: TvDAAO (Trigonopsis variabilis; C108F/C298Q/E32R/F33D/F54S/M156L) (protein)
# chain: MAKIVVIGAGVAGLTTALQLLRKGHEVTIVSRDTPGDLSIGYTSPWAGANWLTSYDGGKLADYDAVSYPILRELARSSPEAGIRLISQRSHVLKRDLPKLEVAMSAIFQRNPWFKNTVDSFEIIEDRSRIVHDDVAYLVEFRSVCIHTGVYLNWLLSQCLSLGATVVKRRVNHIKDANLLHSSGSRPDVIVNCSGLFARFLGGVEDKKMYPIRGQVVLVRNSLPFMASFSSTPEKENEDEALYIMTRFDGTSIIGGCFQPNNWSSEPDPSLTHRILSRALDRFPELTKDGPLDIVREQVGHRPGREGGPRVELEKIPGVGFVVHNYGAAGAGYQSSYGMADEAVSYVERALTRPNL
# notes: FAD-containing; no tag mentioned
# B2: TvDAAO (Trigonopsis variabilis; C108F/F54S/M156L) (protein)
# chain: MAKIVVIGAGVAGLTTALQLLRKGHEVTIVSEFTPGDLSIGYTSPWAGANWLTSYDGGKLADYDAVSYPILRELARSSPEAGIRLISQRSHVLKRDLPKLEVAMSAIFQRNPWFKNTVDSFEIIEDRSRIVHDDVAYLVEFRSVCIHTGVYLNWLLSQCLSLGATVVKRRVNHIKDANLLHSSGSRPDVIVNCSGLFARFLGGVEDKKMYPIRGQVVLVRNSLPFMASFSSTPEKENEDEALYIMTRFDGTSIIGGCFQPNNWSSEPDPSLTHRILSRALDRFPELTKDGPLDIVRECVGHRPGREGGPRVELEKIPGVGFVVHNYGAAGAGYQSSYGMADEAVSYVERALTRPNL
# notes: as for B1
# B3: TvDAAO (Trigonopsis variabilis; C108F/C298G/E32R/F33D/F54S/M156L) (protein)
# chain: MAKIVVIGAGVAGLTTALQLLRKGHEVTIVSRDTPGDLSIGYTSPWAGANWLTSYDGGKLADYDAVSYPILRELARSSPEAGIRLISQRSHVLKRDLPKLEVAMSAIFQRNPWFKNTVDSFEIIEDRSRIVHDDVAYLVEFRSVCIHTGVYLNWLLSQCLSLGATVVKRRVNHIKDANLLHSSGSRPDVIVNCSGLFARFLGGVEDKKMYPIRGQVVLVRNSLPFMASFSSTPEKENEDEALYIMTRFDGTSIIGGCFQPNNWSSEPDPSLTHRILSRALDRFPELTKDGPLDIVREGVGHRPGREGGPRVELEKIPGVGFVVHNYGAAGAGYQSSYGMADEAVSYVERALTRPNL
# notes: as for B1
# B4: TvDAAO (Trigonopsis variabilis; C108F/E32R/F33D) (protein)
# chain: MAKIVVIGAGVAGLTTALQLLRKGHEVTIVSRDTPGDLSIGYTSPWAGANWLTFYDGGKLADYDAVSYPILRELARSSPEAGIRLISQRSHVLKRDLPKLEVAMSAIFQRNPWFKNTVDSFEIIEDRSRIVHDDVAYLVEFRSVCIHTGVYLNWLMSQCLSLGATVVKRRVNHIKDANLLHSSGSRPDVIVNCSGLFARFLGGVEDKKMYPIRGQVVLVRNSLPFMASFSSTPEKENEDEALYIMTRFDGTSIIGGCFQPNNWSSEPDPSLTHRILSRALDRFPELTKDGPLDIVRECVGHRPGREGGPRVELEKIPGVGFVVHNYGAAGAGYQSSYGMADEAVSYVERALTRPNL
# notes: as for B1
# B5: TvDAAO (Trigonopsis variabilis) (protein)
# chain: MAKIVVIGAGVAGLTTALQLLRKGHEVTIVSEFTPGDLSIGYTSPWAGANWLTFYDGGKLADYDAVSYPILRELARSSPEAGIRLISQRSHVLKRDLPKLEVAMSAICQRNPWFKNTVDSFEIIEDRSRIVHDDVAYLVEFRSVCIHTGVYLNWLMSQCLSLGATVVKRRVNHIKDANLLHSSGSRPDVIVNCSGLFARFLGGVEDKKMYPIRGQVVLVRNSLPFMASFSSTPEKENEDEALYIMTRFDGTSIIGGCFQPNNWSSEPDPSLTHRILSRALDRFPELTKDGPLDIVRECVGHRPGREGGPRVELEKIPGVGFVVHNYGAAGAGYQSSYGMADEAVSYVERALTRPNL
# notes: as for B1
# B6: TvDAAO (Trigonopsis variabilis; C108F/E32R/F33D/F54S/M156L) (protein)
# chain: MAKIVVIGAGVAGLTTALQLLRKGHEVTIVSRDTPGDLSIGYTSPWAGANWLTSYDGGKLADYDAVSYPILRELARSSPEAGIRLISQRSHVLKRDLPKLEVAMSAIFQRNPWFKNTVDSFEIIEDRSRIVHDDVAYLVEFRSVCIHTGVYLNWLLSQCLSLGATVVKRRVNHIKDANLLHSSGSRPDVIVNCSGLFARFLGGVEDKKMYPIRGQVVLVRNSLPFMASFSSTPEKENEDEALYIMTRFDGTSIIGGCFQPNNWSSEPDPSLTHRILSRALDRFPELTKDGPLDIVRECVGHRPGREGGPRVELEKIPGVGFVVHNYGAAGAGYQSSYGMADEAVSYVERALTRPNL
# notes: as for B1
# B7: TvDAAO (Trigonopsis variabilis; C108F/E32R/F33D/F54S) (protein)
# chain: MAKIVVIGAGVAGLTTALQLLRKGHEVTIVSRDTPGDLSIGYTSPWAGANWLTSYDGGKLADYDAVSYPILRELARSSPEAGIRLISQRSHVLKRDLPKLEVAMSAIFQRNPWFKNTVDSFEIIEDRSRIVHDDVAYLVEFRSVCIHTGVYLNWLMSQCLSLGATVVKRRVNHIKDANLLHSSGSRPDVIVNCSGLFARFLGGVEDKKMYPIRGQVVLVRNSLPFMASFSSTPEKENEDEALYIMTRFDGTSIIGGCFQPNNWSSEPDPSLTHRILSRALDRFPELTKDGPLDIVRECVGHRPGREGGPRVELEKIPGVGFVVHNYGAAGAGYQSSYGMADEAVSYVERALTRPNL
# notes: as for B1
# B8: TvDAAO (Trigonopsis variabilis; C108F/C298N/E32R/F33D/F54S/M156L) (protein)
# chain: MAKIVVIGAGVAGLTTALQLLRKGHEVTIVSRDTPGDLSIGYTSPWAGANWLTSYDGGKLADYDAVSYPILRELARSSPEAGIRLISQRSHVLKRDLPKLEVAMSAIFQRNPWFKNTVDSFEIIEDRSRIVHDDVAYLVEFRSVCIHTGVYLNWLLSQCLSLGATVVKRRVNHIKDANLLHSSGSRPDVIVNCSGLFARFLGGVEDKKMYPIRGQVVLVRNSLPFMASFSSTPEKENEDEALYIMTRFDGTSIIGGCFQPNNWSSEPDPSLTHRILSRALDRFPELTKDGPLDIVRENVGHRPGREGGPRVELEKIPGVGFVVHNYGAAGAGYQSSYGMADEAVSYVERALTRPNL
# notes: as for B1
# How the values were obtained:
# TvDAAO = molecular target: T1, TvDAAO (Trigonopsis variabilis, UniProt Q99042); assay: horseradish peroxidase / ABTS coupled assay, […] nm; type: biochemical; settings: 0.05 M potassium phosphate pH 8.0, 30 °C, air saturated; read-out: wt-TvDAAO / KM
# T1 construct: gene DAO1; FAD-containing; no tag mentioned
# [1] = substrate: [H][C@]12SCC(COC(C)=O)=C(C(=O)O)N1C(=O)[C@H]2NC(=O)CCC[C@@H](N)C(=O)O; assay: CPC consumption by HPLC, initial rates; type: biochemical, Trigonopsis variabilis; settings: 0.1 M potassium phosphate pH 8.0, 30 °C, air saturated
# Description: CPC consumption by HPLC, initial rates on TvDAAO
# purified protein [2] = substrate: CC(C)C[C@@H](N)C(=O)O; assay: purified protein; settings: 0.05 M potassium phosphate pH 8.0, 30 °C, air saturated
# purified protein [3] = substrate: CC(C)[C@@H](N)C(=O)O; assay: purified protein; settings: 0.05 M potassium phosphate pH 8.0, 30 °C, air saturated
# purified protein [4] = substrate: C[C@@H](N)C(=O)O; assay: purified protein; settings: 0.05 M potassium phosphate pH 8.0, 30 °C, air saturated
# purified protein [5] = substrate: NC(=O)C[C@@H](N)C(=O)O; assay: purified protein; settings: 0.05 M potassium phosphate pH 8.0, 30 °C, air saturated
# purified protein [6] = substrate: CSCC[C@@H](N)C(=O)O; assay: purified protein; type: biochemical, Trigonopsis variabilis; settings: 0.05 M potassium phosphate pH 8.0, 30 °C, air saturated
Molecule,Km (TvDAAO) [µM],Km [1] [µM],kcat [1] [s⁻¹],kcat/Km [1] [M⁻¹ s⁻¹],other results
NCCCC[C@@H](N)C(=O)O [D-Lys],29000,,,,
N[C@H](Cc1ccc(O)cc1)C(=O)O [D-Tyr],450,,,,
N[C@H](CO)C(=O)O [D-Ser],37000,,,,
C[C@H](O)[C@@H](N)C(=O)O [D-Thr],11000,,,,
N[C@H](Cc1c[nH]c2ccccc12)C(=O)O [D-Trp],490,,,,
CSCC[C@@H](N)C(=O)O [D-Met],460,,,,
N[C@H](Cc1ccccc1)C(=O)O [D-Phe],370,,,,
B1,,1400 ± 300,68 ± 0.5,50000 ± 9000,
B2,,1900 ± 600,119 ± 7,60000 ± 20000,
B3,,800 ± 200,65 ± 5,79000 ± 15000,
B4,,1150 ± 80,25.5 ± 1.4,22000 ± 2000,
B5,,1400 ± 400,26 ± 3,18000 ± 5000,Km (purified protein [2]): 400 µM; kcat (purified protein [2]): 29 s⁻¹; Km (purified protein [3]): 14000 µM; kcat (purified protein [3]): 85 s⁻¹; Km (purified protein [4]): 17000 µM; kcat (purified protein [4]): 109 s⁻¹; Km (purified protein [5]): 23000 µM; kcat (purified protein [5]): 62 s⁻¹
B6,,1600 ± 300,106 ± 9,66000 ± 12000,
B7,,1900 ± 400,88 ± 10,45000 ± 11000,
B8,,2900 ± 500,121 ± 15,42000 ± 8000,Km (purified protein [6]): 1400 µM; kcat (purified protein [6]): 41 s⁻¹

# Reference: article PMC6770189, “Multipoint TvDAAO Mutants for Cephalosporin C Bioconversion” (International Journal of Molecular Sciences, 2019)
